Results reported in article PMC3050670.

Key:
[1] = biological target: HIV-1 CA A14C/E45C/W184A/M185A (HIV-1 (human immunodeficiency virus type 1)); test: SEC
[2] = biological target: HIV-1 CA A14C/E45C (HIV-1 (human immunodeficiency virus type 1)); test: cross-linking
[3] = biological target: HIV-1 CA A42C/T54C (HIV-1 (human immunodeficiency virus type 1)); test: cross-linking
[4] = biological target: HIV-1 CA N21C/A22C (HIV-1 (human immunodeficiency virus type 1)); test: cross-linking

Question: “HIV-1 CA A14C/E45C/W184A/M185A (natural protein)” was tested. Which stoichiometry N [1] did it give?
Answer: 6

Question: For HIV-1 CA A14C/E45C (natural protein), which crosslinking efficiency [2] is on record?
Answer: > 90%

Question: What about the stoichiometry N [2] of the same substance?
Answer: 6

Question: With HIV-1 CA A42C/T54C (natural protein) as the substance, how does the crosslinked 6-mer band, share of the total protein [3] read?
Answer: 30%

Question: What about the maximal crosslinking [3] of the same substance?
Answer: 50%

Question: What about the stoichiometry N [3] of the same substance?
Answer: 6

Question: Which stoichiometry N [4] does the source give for HIV-1 CA N21C/A22C (natural protein) here?
Answer: 5
